The results in this text go back to patent publication US20100196385A1.

B1: 12A1 (antibody, IgG4, V domains shown)
VH: QVQLVQSGAEVKRPGASVKVSCKASGYTFTSYGITWVRQAPGQGLEYMGWISTYNGNTDYAQKFQGRVTMTADISTSTAYMELRSLRSDDTAVYYCARERGSYFDYWGQGTLVTVSS
VL: SYELTQPPSVSVSPGQTARITCSGDTLPKKYAYWYQQKSGQAPVLVIYEDIKRPSGIPERFSGSSSGTMATLTISGAQVEDEADYYCFSTDSGGNHKFGGGTKLTVL
B2: 17F3 (antibody, IgG2, V domains shown)
VH: QVQLVQSGAEVKKPGASVKVSCKASGYTFTNYGISWVRQAPGQGLEWMGWINAYNGNTNYAQNLQGRVTMTTDTSTNTAYMELRSLRSDDTAVYYCARVAPAAFFDYWDQGTLVTVSS
VL: SYELTQPPSVSVSPGQTASITCSGDKLGDKYVCWYQQKPGQSPVLVIYQDNKRPSGIPERFSGSNSGNTATLIISGTQAMDEADYYCQAWDSSTVFGGGTKLTVL
B3: 1D4 (antibody, IgG4, V domains shown)
VH: QLQLQESGPGLVKPSETLSLTCTVSGGSISSSSYYWGWIRQPPGKGLEWIGSFYYSRSTYYNPSLKSRVTISVDTSKNQFSLKLSSVTAADTAVHYCARGSIAVPDAFDIWGQGTMVTVSS
VL: SYELTQPPSVSVSPGQTASITCSGDKLGDKFACWYQQKPGHSPVLVVYQDNKRPSGIPERFSGSNSGNSATLTISGTQAMDEADYYCQAWDSNTAVFGGGTKLTVL
B4: 3A7 (antibody, IgG4, V domains shown)
VH: EVQVVESGGGLVQPGGSLRLSCEASGFTFSNYWMIWVRQAPGKGLEWVASIKEDGSEKYYVDSVKGRFTISRDNAKSSLYLQMNSLRAEDTAVYYCVRDWELRGHYYYHGMDVWGQGTTVTVSS
VL: DIQMTQSPSSLSASVGDRVTITCRASLDIRNDLGWFLQKPGKAPKRLIYAASSLQSGVPSRFSGSGSGTEFTLTINSLQPEDFATYYCLQHRNYPFTFGPGTKVDFK
B5: 9G8 (antibody, IgG4, V domains shown)
VH: QLQLQESGPGLVKPSETLSLSCTVSGGSISSSSSYWGLIRQPPGKGLEWIGSIYYSGSTYYSPSLKSRVSISVDTSKNQFSLKLSSVTAADTAVYFCARQGYGGHPDVFDIWGQGTMVTVSS
VL: SSELTQSPSVSVSPGQTARITCSGDKLGDVYVCWYQQKTGQSPVLVIYEDTKRPSGIPERFSGSNSGNTATLTISGTQVMDEADYYCQAWDSTTAVIFGGGTKLTVL
B6: 20G8 (antibody, IgG4, V domains shown)
VH: QVQLVQSGAEVKKPGASVKVSCKASGYTFTSYGISWVRQAPGQGLEWMGWISVYNGNTNYAQKLQGRVTMTTDTSTSTAYMEVRSLRSDDTAVYYCARDRVPRIPRTTEAFDIWGRGTMVTVCS
VL: QSVLTQPPSASGTPGQRVTISCSGSSSNIGSYYVYWYQQLPGTAPKLLIYRDNQRPSGVPDRFSGSKSGTSASLAIRGLRSDDEADYYCAAWDDSLSGHWVFGGGTKLTVL
B7: 2H10 (antibody, IgG4, V domains shown)
VH: QVQLVESGGGVVQPGRSLRLSCAASGFTFSRHGMHWVRQAPGKGLEWVAVVWFDGSNIYYADSVKGRFTISRDNSKNTLYLQMNSLRAEDTAMYYCARDSRIAAADYWGQGTLVTVSS
VL: SYELTQPPSVSVSPGQTVSITCSGDKLGDKYVCWYQQKPGQSPVLVIYQESKRPSGIPERFSGSSSGNTATLTISGTQAMDEADYYCQTWDSSLVVFGGGTKLTVL
B8: 4B4 (antibody, IgG4, V domains shown)
VH: QVLLIQSGAEVKKPGASVQVSCKASGYTFTNYGVIWVRQAPGQGLEYMGWISAYNGNTNYAQKLQDRVTMTSDTSTTTAYMELRSLRSDDTAVYYCARELGSSFDYWGQGTLVTVSS
VL: SYELTQPPSVSVSPGQTARITCSGDALPKKYAYWYQQKSGQAPVLVIYEDIKRPSGIPERFSGSSSGTMATLTISGAQVEDEADYYCFSTDNSGDHSVFGGGTKLTVL
B9: 4B3 (antibody, IgG4, V domains shown)
VH: QVQLVQSGAEVRKSGASVKVSCKASGYSFTTYDINWVRQATGQGLEWMGWMNPNSGYTDYAQKFQGRVTLTRNMSIDTAYMELSSLRSEDTAVYYCARAYYYDSSAYYLFDYWGQGTLVTVSS
VL: DIQMTQSPSSLSASVGDRVTITCRASQGISNYLAWFQQKPGKAPKSLIYAASSLQSGVPSKFSGSGSGTDFTLTISSLQPEDFATYFCQQYISYPLTFGGGTKVEI
B10: 4B4 IgG1 (antibody, V domains shown)
VH: B8 VH
VL: B8 VL

Sequence of DLL4 extracellular domain (R&D systems, catalog #1506-D4/CF) (Q9NR61 27-529 limits assumed): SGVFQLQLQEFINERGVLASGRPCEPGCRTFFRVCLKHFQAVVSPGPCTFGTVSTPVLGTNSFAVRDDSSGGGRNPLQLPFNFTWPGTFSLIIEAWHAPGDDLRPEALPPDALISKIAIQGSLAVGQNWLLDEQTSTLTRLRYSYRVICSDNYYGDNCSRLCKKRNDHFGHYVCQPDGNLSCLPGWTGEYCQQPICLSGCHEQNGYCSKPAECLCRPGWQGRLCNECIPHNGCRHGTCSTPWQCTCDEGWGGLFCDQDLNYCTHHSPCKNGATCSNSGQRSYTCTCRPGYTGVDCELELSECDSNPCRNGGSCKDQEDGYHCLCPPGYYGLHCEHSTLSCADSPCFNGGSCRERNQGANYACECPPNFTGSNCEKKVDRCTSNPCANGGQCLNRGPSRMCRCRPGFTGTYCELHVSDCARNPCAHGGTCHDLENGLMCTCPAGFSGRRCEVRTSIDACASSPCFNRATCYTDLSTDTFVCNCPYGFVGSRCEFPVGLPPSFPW

In one assay the target is full length cynomolgus monkey DLL4 (cynomolgus monkey). Kind of assay: FMAT, hybridoma supernatant, 293T cells with cynomolgus DLL4.
In turn, B1 registered a Count of 106, an FL1 of 12900 and an FL1 x count of 1.37e+06.

Molecule B2 returned a Count of 120, an FL1 of 10700 and an FL1 x count of 1.29e+06.

B3 returned a Count of 103, an FL1 of 11700 and an FL1 x count of 1.21e+06.

With B4, the Count is 121, the FL1 turned out to be 9960 and the FL1 x count was determined as 1.2e+06.

B5 showed a Count of 120, an FL1 of 11700 and an FL1 x count of 1.41e+06.

For B6, the Count is 128, the FL1 came to 11200 and the FL1 x count amounted to 1.44e+06.

Regarding B7, the Count amounted to 103, the FL1 stood at 13100 and the FL1 x count was 1.35e+06.

The molecule B8 yielded a Count of 117, an FL1 of 12300 and an FL1 x count of 1.04e+09.

As for B9, the Count is 97, the FL1 was determined as 12600 and the FL1 x count came out at 1.22e+06.

The next assay concerns the target DLL4 extracellular domain (R&D systems, catalog #1506-D4/CF) (UniProt Q9NR61). The experiment in a line: cell-based or functional assay.
B6: the % inhibition 1 µg/ml, AVERAGE (HUVEC proliferation on coated DLL4) is 85%; the % inhibition 1 µg/ml, N = 1 (HUVEC proliferation on coated DLL4) amounted to 94%; the % inhibition 1 µg/ml, N = 2 (HUVEC proliferation on coated DLL4) amounted to 75%; the % inhibition 10 µg/ml, AVERAGE (HUVEC proliferation on coated DLL4) is 98%. Further, the % inhibition 10 µg/ml, N = 1 (HUVEC proliferation on coated DLL4) is 103% and the % inhibition 10 µg/ml, N = 2 (HUVEC proliferation on coated DLL4) stood at 93%.

Another assay deals with full length cynomolgus monkey DLL4 (cynomolgus monkey). Kind of assay: FACS competition vs Notch1/Fc, HEK293 cells with cynomolgus DLL4.
For B10, the IC50 was determined as 0.5 nM.

The next assay has the same target. The experiment in a line: FACS titration, HEK293 cells with cynomolgus DLL4.
As to B10, the Kd stood at 0.081 nM.
